Data from the Human Domainome abundance scans (Beltran et al. 2025).
± gives the uncertainty stated by the source.

Assay: abundance fitness (aPCA) (normalised: wild type 0, dead -1); higher = more abundant; growth selection in yeast, the domain comes from the species named
Conditions: Homo sapiens

BAG family molecular chaperone regulator 3 D51T, O95817
abundance fitness: 0.29 ± 0.25

BAG family molecular chaperone regulator 3 D51V, O95817
abundance fitness: -0.666 ± 0.12

BAG family molecular chaperone regulator 3 D51W, O95817
abundance fitness: -1.18 ± 0.23

BAG family molecular chaperone regulator 3 D51Y, O95817
abundance fitness: -0.45 ± 0.4

BAG family molecular chaperone regulator 3 E27A, O95817
abundance fitness: -0.617 ± 0.18

BAG family molecular chaperone regulator 3 E27C, O95817
abundance fitness: -0.789 ± 0.39

BAG family molecular chaperone regulator 3 E27D, O95817
abundance fitness: -0.472 ± 0.35

BAG family molecular chaperone regulator 3 E27G, O95817
abundance fitness: -0.54 ± 0.14

BAG family molecular chaperone regulator 3 E27K, O95817
abundance fitness: -0.42 ± 0.23

BAG family molecular chaperone regulator 3 E27L, O95817
abundance fitness: -0.912 ± 0.2

BAG family molecular chaperone regulator 3 E27M, O95817
abundance fitness: -0.714 ± 0.19

BAG family molecular chaperone regulator 3 E27N, O95817
abundance fitness: -0.889 ± 0.22

BAG family molecular chaperone regulator 3 E27P, O95817
abundance fitness: -0.836 ± 0.39

BAG family molecular chaperone regulator 3 E27Q, O95817
abundance fitness: -0.222 ± 0.3

BAG family molecular chaperone regulator 3 E27R, O95817
abundance fitness: -0.742 ± 0.15

BAG family molecular chaperone regulator 3 E27S, O95817
abundance fitness: -0.596 ± 0.14

BAG family molecular chaperone regulator 3 E27T, O95817
abundance fitness: -0.555 ± 0.15

BAG family molecular chaperone regulator 3 E27V, O95817
abundance fitness: -0.96 ± 0.25

BAG family molecular chaperone regulator 3 E27W, O95817
abundance fitness: -0.988 ± 0.48

BAG family molecular chaperone regulator 3 E57A, O95817
abundance fitness: -0.317 ± 0.1

BAG family molecular chaperone regulator 3 E57C, O95817
abundance fitness: -0.564 ± 0.15

BAG family molecular chaperone regulator 3 E57F, O95817
abundance fitness: -0.052 ± 0.28

BAG family molecular chaperone regulator 3 E57G, O95817
abundance fitness: -0.237 ± 0.12

BAG family molecular chaperone regulator 3 E57H, O95817
abundance fitness: -0.326 ± 0.38

BAG family molecular chaperone regulator 3 E57I, O95817
abundance fitness: -0.566 ± 0.36

BAG family molecular chaperone regulator 3 E57K, O95817
abundance fitness: -0.11 ± 0.24

BAG family molecular chaperone regulator 3 E57L, O95817
abundance fitness: -0.468 ± 0.094

BAG family molecular chaperone regulator 3 E57M, O95817
abundance fitness: -0.186 ± 0.24

BAG family molecular chaperone regulator 3 E57N, O95817
abundance fitness: 0.759 ± 0.22

BAG family molecular chaperone regulator 3 E57P, O95817
abundance fitness: -0.027 ± 0.16

BAG family molecular chaperone regulator 3 E57Q, O95817
abundance fitness: -0.46 ± 0.33

BAG family molecular chaperone regulator 3 E57R, O95817
abundance fitness: -0.119 ± 0.081

BAG family molecular chaperone regulator 3 E57S, O95817
abundance fitness: -0.001 ± 0.11

BAG family molecular chaperone regulator 3 E57T, O95817
abundance fitness: -0.118 ± 0.21

BAG family molecular chaperone regulator 3 E57V, O95817
abundance fitness: -0.721 ± 0.21

BAG family molecular chaperone regulator 3 E57W, O95817
abundance fitness: -0.423 ± 0.29

BAG family molecular chaperone regulator 3 E57Y, O95817
abundance fitness: -0.44 ± 0.13

BAG family molecular chaperone regulator 3 F38A, O95817
abundance fitness: -0.181 ± 0.15

BAG family molecular chaperone regulator 3 F38D, O95817
abundance fitness: -0.57 ± 0.14

BAG family molecular chaperone regulator 3 F38E, O95817
abundance fitness: -0.356 ± 0.13

BAG family molecular chaperone regulator 3 F38G, O95817
abundance fitness: -0.503 ± 0.14

BAG family molecular chaperone regulator 3 F38H, O95817
abundance fitness: -0.014 ± 0.15

BAG family molecular chaperone regulator 3 F38I, O95817
abundance fitness: -0.692 ± 0.34

BAG family molecular chaperone regulator 3 F38K, O95817
abundance fitness: -0.31 ± 0.088

BAG family molecular chaperone regulator 3 F38L, O95817
abundance fitness: 0.326 ± 0.072

BAG family molecular chaperone regulator 3 F38M, O95817
abundance fitness: 0.197 ± 0.14

BAG family molecular chaperone regulator 3 F38N, O95817
abundance fitness: -0.724 ± 0.46

BAG family molecular chaperone regulator 3 F38Q, O95817
abundance fitness: 0.571 ± 0.22

BAG family molecular chaperone regulator 3 F38R, O95817
abundance fitness: -0.149 ± 0.1

BAG family molecular chaperone regulator 3 F38S, O95817
abundance fitness: -0.243 ± 0.069

BAG family molecular chaperone regulator 3 F38T, O95817
abundance fitness: -0.622 ± 0.29

BAG family molecular chaperone regulator 3 F38V, O95817
abundance fitness: -0.092 ± 0.14

BAG family molecular chaperone regulator 3 F38W, O95817
abundance fitness: -0.665 ± 0.25

BAG family molecular chaperone regulator 3 F39A, O95817
abundance fitness: -0.89 ± 0.18

BAG family molecular chaperone regulator 3 F39E, O95817
abundance fitness: -0.154 ± 0.085

BAG family molecular chaperone regulator 3 F39G, O95817
abundance fitness: -0.436 ± 0.067

BAG family molecular chaperone regulator 3 F39H, O95817
abundance fitness: -0.615 ± 0.39

BAG family molecular chaperone regulator 3 F39L, O95817
abundance fitness: -0.528 ± 0.14

BAG family molecular chaperone regulator 3 F39N, O95817
abundance fitness: -0.442 ± 0.29

BAG family molecular chaperone regulator 3 F39P, O95817
abundance fitness: -0.639 ± 0.19

BAG family molecular chaperone regulator 3 F39Q, O95817
abundance fitness: -0.633 ± 0.5

BAG family molecular chaperone regulator 3 F39R, O95817
abundance fitness: -0.618 ± 0.068

BAG family molecular chaperone regulator 3 F39S, O95817
abundance fitness: -0.729 ± 0.19

BAG family molecular chaperone regulator 3 F39T, O95817
abundance fitness: -0.587 ± 0.26

BAG family molecular chaperone regulator 3 F39V, O95817
abundance fitness: -0.754 ± 0.11

BAG family molecular chaperone regulator 3 F39W, O95817
abundance fitness: -0.42 ± 0.19

BAG family molecular chaperone regulator 3 F39Y, O95817
abundance fitness: -0.244 ± 0.24

BAG family molecular chaperone regulator 3 G15C, O95817
abundance fitness: 0.649 ± 0.079

BAG family molecular chaperone regulator 3 G15D, O95817
abundance fitness: 1.2 ± 0.092

BAG family molecular chaperone regulator 3 G15E, O95817
abundance fitness: 1 ± 0.094

BAG family molecular chaperone regulator 3 G15F, O95817
abundance fitness: 0.641 ± 0.083

BAG family molecular chaperone regulator 3 G15H, O95817
abundance fitness: 1.18 ± 0.16

BAG family molecular chaperone regulator 3 G15I, O95817
abundance fitness: 0.795 ± 0.18

BAG family molecular chaperone regulator 3 G15K, O95817
abundance fitness: 1.15 ± 0.12

BAG family molecular chaperone regulator 3 G15L, O95817
abundance fitness: 0.766 ± 0.074

BAG family molecular chaperone regulator 3 G15M, O95817
abundance fitness: 0.142 ± 0.17

BAG family molecular chaperone regulator 3 G15N, O95817
abundance fitness: 1.04 ± 0.089

BAG family molecular chaperone regulator 3 G15P, O95817
abundance fitness: 0.603 ± 0.15

BAG family molecular chaperone regulator 3 G15Q, O95817
abundance fitness: 0.828 ± 0.094

BAG family molecular chaperone regulator 3 G15R, O95817
abundance fitness: 0.737 ± 0.059

BAG family molecular chaperone regulator 3 G15S, O95817
abundance fitness: 0.814 ± 0.067

BAG family molecular chaperone regulator 3 G15T, O95817
abundance fitness: 0.856 ± 0.082

BAG family molecular chaperone regulator 3 G15V, O95817
abundance fitness: 0.89 ± 0.078

BAG family molecular chaperone regulator 3 G15W, O95817
abundance fitness: -0.481 ± 0.19

BAG family molecular chaperone regulator 3 G15Y, O95817
abundance fitness: 0.874 ± 0.075

BAG family molecular chaperone regulator 3 G17A, O95817
abundance fitness: 0.55 ± 0.09

BAG family molecular chaperone regulator 3 G17C, O95817
abundance fitness: 0.731 ± 0.11

BAG family molecular chaperone regulator 3 G17D, O95817
abundance fitness: 0.825 ± 0.07

BAG family molecular chaperone regulator 3 G17E, O95817
abundance fitness: 0.915 ± 0.077

BAG family molecular chaperone regulator 3 G17F, O95817
abundance fitness: -0.177 ± 0.23

BAG family molecular chaperone regulator 3 G17H, O95817
abundance fitness: 1.03 ± 0.1
